Series [1] concerns the target CPEB4 RRM1–RRM2 (463–665) (human) (UniProt Q17RY0). The experiment in a line: native MS.
For series [2] the target is unchanged. Description: semi-native SDS PAGE.
The series “semi-native SDS PAGE” concerns the molecule itself. Description: semi-native SDS PAGE.

2 molecules from paper PMC4150798 (Nucleic Acids Research, 2014) can be followed below.

For the molecule “CPEB4 RRM1–RRM2 (463–665) (from UniProt Q17RY0 463-665) (domain or fragment)”, the stoichiometry N in series [1] and in series [2] was 2 each time. Further, the maximum dimeric population in series [2] is below 10%.

B1: CPEB4 RRM1 (463–573) (domain or fragment, human, UniProt Q17RY0 463-573, looked up)
chain: NGERVERYSRKVFVGGLPPDIDEDEITASFRRFGPLIVDWPHKAESKSYFPPKGYAFLLFQDESSVQALIDACIEEDGKLYLCVSSPTIKDKPVQIRPWNLSDSDFVMDGS
In the case of B1, in the series “semi-native SDS PAGE”, the stoichiometry N (as a rule, a count of units in the complex or per binding partner) was 2.
